From patent publication US7985739, “Enhanced sleeping beauty transposon system and methods for using the same” (The Board of Trustees of the Leland Stanford Junior …)

Experiments:
[1] = system: Sleeping Beauty transposase N123 HSB1 (mutations not given) (salmonid (reconstructed)); assay: EMSA; conditions: no change vs WT
[2] = system: Sleeping Beauty transposase S270A S270A (salmonid (reconstructed)); assay: cell_activity; conditions: transposition in HeLa
[3] = system: Sleeping Beauty transposase K33A K33A (salmonid (reconstructed)); assay: cell_activity; conditions: transposition in HeLa; text says improved 400%
[4] = system: Sleeping Beauty transposase HSB-5 K13A,K33A,T83A,S270A (salmonid (reconstructed)); assay: cell_activity; conditions: transposition in HeLa, G418R colonies
[5] = target: T1, Sleeping Beauty transposase N123 R36A (salmonid (reconstructed), R36A); assay: EMSA; conditions: tags: pGADT7 TNT T7 reticulocyte lysate; label: 32P
T1 chain: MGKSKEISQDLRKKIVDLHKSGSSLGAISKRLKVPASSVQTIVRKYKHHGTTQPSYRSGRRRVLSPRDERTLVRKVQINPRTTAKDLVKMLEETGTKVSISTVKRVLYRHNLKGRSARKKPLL
Protocol: (§1) Truncated (N123) derivatives of wild-type and mutant SB proteins were generated using the TNT T7 coupled reticulocyte lysate system (Promega) according to the manufacturer's instructions. Double-stranded oligonucleotides corresponding to the outer and inner direct repeats (DRs) from SB's left inverted repeat (IR) were end-labeled using [γ-^32P]ATP and PNK. Complexes were formed in a 10 μl volume containing 10 fmol labeled oligonucleotide, 6 μl of in vitro translation product, 1 μg poly(dI)(dC), and binding buffer as previously described (Ivics et al., 1997). For competitions, increasing amounts (1-500 nM) of the corresponding unlabeled oligonucleotide was added to the reaction. After a 90 minute incubation at 22° C., 5 μl of loading dye was added and each sample was resolved on a 5% polyacrylamide gel for 2-3 hours at 120 volts. Binding affinities were determined by measuring the ratio of bound vs. free radiolabeled probe using a Phosphorimager, and normalized according to the amount bound in the absence of cold competitor minus the amount bound at the highest competitor concentration.

[6] = target: T2, Sleeping Beauty transposase N123 L25A (salmonid (reconstructed), L25A); assay: EMSA; conditions: tags: pGADT7 TNT T7 reticulocyte lysate; label: 32P
T2 chain: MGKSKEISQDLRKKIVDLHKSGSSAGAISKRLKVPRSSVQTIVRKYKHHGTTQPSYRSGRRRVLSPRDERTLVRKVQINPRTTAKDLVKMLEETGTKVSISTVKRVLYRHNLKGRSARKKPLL
Protocol: as §1

[7] = target: T3, Sleeping Beauty transposase N123 I42A (salmonid (reconstructed), I42A); assay: EMSA; conditions: tags: pGADT7 TNT T7 reticulocyte lysate; label: 32P
T3 chain: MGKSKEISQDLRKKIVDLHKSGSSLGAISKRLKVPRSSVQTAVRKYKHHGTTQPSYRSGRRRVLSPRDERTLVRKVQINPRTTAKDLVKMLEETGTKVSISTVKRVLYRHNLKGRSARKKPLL
Protocol: as §1

[8] = target: T4, Sleeping Beauty transposase N123 HSB2 (salmonid (reconstructed), K33A,L91A); assay: EMSA; no change vs WT; conditions: tags: pGADT7 TNT T7 reticulocyte lysate; label: 32P
T4 chain: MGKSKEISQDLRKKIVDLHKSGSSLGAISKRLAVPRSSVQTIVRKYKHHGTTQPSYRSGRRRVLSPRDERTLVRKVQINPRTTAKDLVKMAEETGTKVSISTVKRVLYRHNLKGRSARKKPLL
Protocol: as §1
(§2) Figure 8: FIG. 8. is a comparison of the relative binding affinities of the WT and HSB mutants for transposon binding sites. SB-N123 peptides for WT and hyperactive transposases were complexed with double-stranded radiolabeled oligos encoding the inner (top panel) or outer (bottom panel) DR sequences. Protein-DNA complexes were formed in the presence of increasing amounts of the corresponding unlabeled oligonucleotide. The percent binding was determined using a Phosphorimager and normalized according to the amount of probe bound in the absence of any competitor minus the amount of probe bound at 500 nM.

[9] = target: T5, Sleeping Beauty transposase N123 HSB3 (salmonid (reconstructed), K13A,K33A,T83A); assay: EMSA; no change vs WT; conditions: tags: pGADT7 TNT T7 reticulocyte lysate; label: 32P
T5 chain: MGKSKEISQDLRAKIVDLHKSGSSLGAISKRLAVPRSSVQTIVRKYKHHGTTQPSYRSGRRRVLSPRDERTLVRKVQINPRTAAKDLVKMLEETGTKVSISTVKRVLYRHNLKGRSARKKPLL
Protocol: as §1, §2

[10] = target: T6, Sleeping Beauty transposase N123 HSB4 (salmonid (reconstructed), K33A,T83A,L91A); assay: EMSA; no change vs WT; conditions: tags: pGADT7 TNT T7 reticulocyte lysate; label: 32P
T6 chain: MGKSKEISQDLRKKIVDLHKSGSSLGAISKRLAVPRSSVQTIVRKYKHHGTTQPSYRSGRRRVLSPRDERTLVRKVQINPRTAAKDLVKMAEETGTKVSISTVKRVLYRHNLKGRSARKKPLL
Protocol: as §1, §2

[11] = target: T7, Sleeping Beauty transposase N123 (WT) (salmonid (reconstructed)); assay: EMSA; poly(dI)(dC), 22 C; 500-fold cold oligo used as specific competitor; conditions: tags: pGADT7 TNT T7 reticulocyte lysate; label: 32P
T7 chain: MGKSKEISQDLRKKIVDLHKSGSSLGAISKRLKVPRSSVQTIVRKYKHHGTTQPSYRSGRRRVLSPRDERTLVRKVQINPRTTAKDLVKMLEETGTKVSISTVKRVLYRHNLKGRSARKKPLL
Protocol: as §1

[12] = target: T4, Sleeping Beauty transposase N123 HSB2; assay: EMSA; cold competition, 1-500 nM; conditions: tags: pGADT7 TNT T7 reticulocyte lysate; label: 32P
Protocol: as §1, §2

[13] = target: T5, Sleeping Beauty transposase N123 HSB3; assay: EMSA; cold competition, 1-500 nM; conditions: tags: pGADT7 TNT T7 reticulocyte lysate; label: 32P
Protocol: as §1, §2

[14] = target: T6, Sleeping Beauty transposase N123 HSB4; assay: EMSA; cold competition, 1-500 nM; conditions: tags: pGADT7 TNT T7 reticulocyte lysate; label: 32P
Protocol: as §1, §2

## TCCAGTGGGTCAGAAGTTTACATACACTAAGT (double strand) [inner DR of SB left IR]
[1]
  binding signal (fold affinity vs WT): 1

## pT/nori neomycin-marked SB transposon (full sequence not given)
[2]
  activity: 186 % of WT
[3]
  activity: 400 % of WT
[4]
  activity: > 10 fold vs WT

B1: inner DR of SB left IR (dsDNA)
DNA 1: TCCAGTGGGTCAGAAGTTTACATACACTAAGT
DNA 2: ACTTAGTGTATGTAAACTTCTGACCCACTGGA
[5]
  binding result: binds
[6]
  binding result: binds
[7]
  binding result: binds
[8]
  binding signal: 1 fold affinity vs WT
[9]
  binding signal: 1 fold affinity vs WT
[10]
  binding signal: 1 fold affinity vs WT
[11]
  binding result: binds

B2: outer DR of SB left IR (dsDNA)
DNA 1: TACAGTTGAAGTCGGAAGTTTACATACACTTAGG
DNA 2: CCTAAGTGTATGTAAACTTCCGACTTCAACTGTA
[12]
  binding result: binds
[13]
  binding signal: 2 fold affinity vs WT
[14]
  binding result: binds
[11]
  binding result: binds
